Results on three substances are retold here after patent EP3196312B1, “EFFICIENT CONVERSION OF METHYLGLYOXAL INTO HYDROXYACETONE USING NOVEL ENZYMES AND APPLI CATIONS THEREOF” (Metabolic Explorer, priority 2016, dated 2017).

The test system of data set [1] is CC(=O)C=O. As to the kind of experiment: Methylglyoxal reductase kinetic parameters of purified enzyme (NAD(P)H consumption at 340 nm). The data set is classed as biochemical, Escherichia coli. The note with it: other: substrate methylglyoxal 0.1-40 mM, cofactor NADPH, pH 7.5. Here is the method: Except for the strain 18, the proteins were purified from the crude cell-extract by affinity on a Profinity column (BIORAD, Bio-Scale Mini Profinity exact cartridge 5 ml) according to the protocol recommended by the manufacturer. The crude extract was loaded on a 5 ml Profinity exact cartridge equilibrated with 100 mM potassium phosphate pH 7.6. The column was washed with 10 column volumes of the same buffer and incubated 30min with 100 mM potassium phosphate pH 7.6, 100 mM fluoride at room temperature. The protein was eluted from the column with 2 column volumes of 100 mM potassium phosphate pH 7.6. The tag remained tightly bound to the resin and the purified protein was released. The fractions containing the protein were pooled, concentrated and loaded on a gel filtration column (Superdex 200 10/300 GL column, GE Healthcare) equilibrated with different storage buffers (Table 3). Protein concentration was measured using the Bradford protein assay.
(§1) Methylglyoxal reductase activity (MGR) was determined by measuring the consumption of NAD(P)H at 340 nm on a spectrophotometer at 30°C (λ340 = 6290 M^-1 cm^-1). The reaction mixture (1mL) containing assay buffer and purified enzyme was incubated for 5 min at 30°C. Then, 0.1-40 mM methylglyoxal was added to start the reaction. One unit of enzyme activity was defined as the amount of enzyme catalyzing the decrease of 1µmol of NAD(P)H per min. Kinetic parameters were determined with Sigmaplot.

For data set [2], the system named is CC(=O)C=O. The description is as above. The data set is classed as biochemical, Escherichia coli. The conditions noted are these: other: substrate methylglyoxal 0.1-40 mM, cofactor NADH, 100mM MES-KOH (pH6.5) 0.1mM FeSO4 30mM ammonium sulfate, 30°C, pH 6.5. As to the method:
For strain 14, the purification protocol was previously described in patent application WO 2015/173247. Table 3: Protein storage buffer
as §1

For orientation: Km means the concentration of substrate that gives half-maximal velocity. Consider “Escherichia coli YqhD variant YqhD*(G149E), SEQ ID NO: 9 (Escherichia coli K-12; G149E)”, for which the Km in the data set on CC(=O)C=O [1] (20mM Hepes (pH7.5) 0.1mM ZnSO4, 30°C) amounted to 2.92 mM.
In general, kcat/Km refers to the second-order rate constant that governs catalysis at low substrate concentration. Turning to “Escherichia coli GldA (glycerol dehydrogenase) variant GldA*(A160T), SEQ ID NO: 17 (Escherichia coli K-12; A160T)”, in the data set on CC(=O)C=O [2], the Km worked out at 3.17 mM and the kcat/Km was determined as 7800 M⁻¹ s⁻¹.
Regarding “Escherichia coli YdjG variant YdjG*(D232E), SEQ ID NO: 101 (Escherichia coli K-12; D232E)”, in the data set with CC(=O)C=O [1] (20mM Hepes (pH7.5), 30°C), the Km is 3.25 mM and the kcat/Km was determined as 10 M⁻¹ s⁻¹.
